These results are taken from publication PMC11485749 (mAbs, 2024).

Experiment [1] has as its target T1, hCD200R1-iso4-Ref ECD (Homo sapiens, UniProt Q8TD46).
Experiment [2] has as its target T2, recombinant MfCD200R1 ECD (Macaca fascicularis, UniProt G7NZT0). Kind of experiment: SPR.
Experiment [3] has as its target T1, hCD200R1-iso4-Ref ECD. Kind of experiment: SPR. A general note: In SPR one partner is held on a chip, and binding of the other changes the refractive index at the surface.
The target in experiment [4] is WT hCD200R1-iso4-Ref expressed on Expi293 cells (Homo sapiens, UniProt Q8TD46, strain). Kind of experiment: flow cytometry on cells.
Chain of WT hCD200R1-iso4-Ref expressed on Expi293 cells (Q8TD46 whole entry, looked up, change not shown, the tested form may be a part): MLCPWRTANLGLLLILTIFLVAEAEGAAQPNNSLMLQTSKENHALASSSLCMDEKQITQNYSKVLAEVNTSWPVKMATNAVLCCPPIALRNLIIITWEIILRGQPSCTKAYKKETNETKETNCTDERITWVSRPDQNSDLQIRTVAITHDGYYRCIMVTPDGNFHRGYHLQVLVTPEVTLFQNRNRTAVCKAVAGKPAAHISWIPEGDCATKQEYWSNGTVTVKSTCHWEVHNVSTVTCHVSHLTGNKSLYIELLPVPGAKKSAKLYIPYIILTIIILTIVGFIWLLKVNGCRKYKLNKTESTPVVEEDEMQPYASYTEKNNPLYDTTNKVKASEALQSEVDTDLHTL
In experiment [5] the target is T2, recombinant MfCD200R1 ECD. Kind of experiment: SPR. The source holds these as a separate data set.

For orientation: Kd means the constant that tells how readily two partners part at equilibrium.

Like-named read-outs stand apart in the source and are kept apart here.

T1 sequence (Q8TD46 29-265): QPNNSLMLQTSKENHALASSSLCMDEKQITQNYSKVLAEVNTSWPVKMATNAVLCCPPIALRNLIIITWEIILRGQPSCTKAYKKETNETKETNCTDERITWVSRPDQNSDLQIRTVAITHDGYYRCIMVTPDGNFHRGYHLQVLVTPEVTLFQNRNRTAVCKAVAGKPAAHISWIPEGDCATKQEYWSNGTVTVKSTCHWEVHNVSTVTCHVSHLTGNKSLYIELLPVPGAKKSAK

B1: 23ME-00611 (antibody, V domains shown)
VH: EVQLQESGPGLVKPSETLSLTCTVSGFSLTNYRVSWVRQPPGKGLEWLGVMYAGGGTNYNSVFKSRLTISKDNSKNQVSLKLSSVTAADTAVYYCARERPLTGVMDNWGQGTLVTVSS
VL: DIVLTQSPDSLAVSLGERATINCRASESVDYSGNSFMHWFQQKPGQPPKLLIYRASNLESGIPDRFSGSGSRTDFTLTISSLQAEDVAVYYCHQSNWDPPTFGGGTKVEIK
As to B1, the Kd turned out to be 1 nM with hCD200R1-iso4-Ref ECD [1] and 2 nM in experiment [2].

B2: 23ME-00610 (antibody, V domains shown)
VH: EVQLQESGPGLVKPSETLSLTCTVSGFSLTNYAVSWVRQPPGKGLEWLGVMWAGGGTNYNSVFKSRLTISKDNSKNQVSLKLSSVTAADTAVYYCARERPLTGVMDYWGQGTLVTVSS
VL: DIVLTQSPDSLAVSLGERATINCRASESVDYSGNSFMHWFQQKPGQPPKLLIYRASNLESGIPDRFSGSGSRTDFTLTISSLQAEDVAVYYCHQSNEDPPTFGGGTKVEIK
Take B2: the Kd with hCD200R1-iso4-Ref ECD [3] is 0.1 nM. For the same molecule, the binding result is given as “no binding (tested: up to 200 nM)” in experiment [2] and “binds” in experiment [4].

B3: 23ME-00610_A33R (antibody, V domains shown)
VH: EVQLQESGPGLVKPSETLSLTCTVSGFSLTNYRVSWVRQPPGKGLEWLGVMWAGGGTNYNSVFKSRLTISKDNSKNQVSLKLSSVTAADTAVYYCARERPLTGVMDYWGQGTLVTVSS
VL: DIVLTQSPDSLAVSLGERATINCRASESVDYSGNSFMHWFQQKPGQPPKLLIYRASNLESGIPDRFSGSGSRTDFTLTISSLQAEDVAVYYCHQSNEDPPTFGGGTKVEIK
On to B3, for which, in experiment [5], the binding result is given as “binds”.

B4: 23ME-00610_E93W (antibody, V domains shown)
VH: EVQLQESGPGLVKPSETLSLTCTVSGFSLTNYAVSWVRQPPGKGLEWLGVMWAGGGTNYNSVFKSRLTISKDNSKNQVSLKLSSVTAADTAVYYCARERPLTGVMDYWGQGTLVTVSS
VL: DIVLTQSPDSLAVSLGERATINCRASESVDYSGNSFMHWFQQKPGQPPKLLIYRASNLESGIPDRFSGSGSRTDFTLTISSLQAEDVAVYYCHQSNWDPPTFGGGTKVEIK
For the molecule B4, in experiment [5], the binding result is given as “binds”.
